Patent US20110287023A1

Biological target: HMG1 purified from calf (bovine) thymus (bovine) (UniProt P10103)
Experiment: cell-based or functional assay

Sequence of HMG1 purified from calf (bovine) thymus (bovine) (P10103 2-215 limits assumed): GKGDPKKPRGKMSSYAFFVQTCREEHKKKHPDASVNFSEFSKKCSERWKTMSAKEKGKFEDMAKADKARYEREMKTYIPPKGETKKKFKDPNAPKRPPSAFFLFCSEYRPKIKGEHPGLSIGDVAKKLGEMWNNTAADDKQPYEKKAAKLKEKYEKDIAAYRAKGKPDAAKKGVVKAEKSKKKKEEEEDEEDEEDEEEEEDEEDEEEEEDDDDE

RAGE-Fc fusion protein (species not stated)
IFN-α release (HMGB/CpG-A mediated enhanced TLR9 signaling): > 95%
